Laboratory results as given in PMC5138130 (Journal of molecular biology, 2016).
“And” between values parts separate entries of the source, which are not always exact repeats. Identical values can stand only once. Values belong to the molecule of their own block, whether it stands above or below them.

Columns and labels:
[1] = target: Bni5(1–313) used for FFF-MALS (S. cerevisiae) (UniProt P53890); experiment: field-flow fractionation with multi-angle light scattering
[2] = target: T1, (His)8-3C protease cleavage site-Bni5 fusion (wild-type Bni5) (S. cerevisiae, UniProt P53890 1-448); experiment: negative-stain electron microscopy with 2D class averages
T1 sequence (looked up): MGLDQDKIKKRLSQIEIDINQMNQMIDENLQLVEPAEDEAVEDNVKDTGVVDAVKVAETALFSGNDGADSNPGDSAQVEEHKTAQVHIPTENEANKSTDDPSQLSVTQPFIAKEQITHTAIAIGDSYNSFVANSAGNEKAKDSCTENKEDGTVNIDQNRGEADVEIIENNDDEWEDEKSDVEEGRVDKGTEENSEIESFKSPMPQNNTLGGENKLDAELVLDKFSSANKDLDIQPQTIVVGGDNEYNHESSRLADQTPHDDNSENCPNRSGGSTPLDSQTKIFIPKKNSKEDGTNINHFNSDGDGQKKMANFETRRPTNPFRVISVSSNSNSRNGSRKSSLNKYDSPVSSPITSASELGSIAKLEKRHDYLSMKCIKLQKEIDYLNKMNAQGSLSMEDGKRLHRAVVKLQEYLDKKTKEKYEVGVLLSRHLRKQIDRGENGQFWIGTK

[3] = target: the molecule itself; experiment: as above
[4] = target: Otherwise Cys-less septin hetero-octamers capped with Cdc11(Δα0) E294C labeled with AF555 (S. cerevisiae) (UniProt P32458); experiment: FRET or BRET
[5] = target: T2, (His)8-3C protease cleavage site-Bni5 fusion (wild-type Bni5) (S. cerevisiae), P53890; experiment: AUC; details: remark: other sources report otherwise
T2 chain: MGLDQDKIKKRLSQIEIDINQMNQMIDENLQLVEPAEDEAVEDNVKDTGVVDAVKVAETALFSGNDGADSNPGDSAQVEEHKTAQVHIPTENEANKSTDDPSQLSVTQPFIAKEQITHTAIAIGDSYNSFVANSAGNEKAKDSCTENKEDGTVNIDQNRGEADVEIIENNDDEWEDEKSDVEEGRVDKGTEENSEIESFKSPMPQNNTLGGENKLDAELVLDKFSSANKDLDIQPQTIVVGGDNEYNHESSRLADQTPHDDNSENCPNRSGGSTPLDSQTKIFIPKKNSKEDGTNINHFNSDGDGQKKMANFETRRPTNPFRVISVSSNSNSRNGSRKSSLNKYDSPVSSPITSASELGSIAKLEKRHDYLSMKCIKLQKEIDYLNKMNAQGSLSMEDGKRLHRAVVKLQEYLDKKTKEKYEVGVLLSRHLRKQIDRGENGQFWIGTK

[6] = target: T2, (His)8-3C protease cleavage site-Bni5 …; experiment: field-flow fractionation with multi-angle light scattering; details: remark: other sources report otherwise

Molecule: Bni5(1–313) used for FFF-MALS (from UniProt P53890 1-313) (domain or fragment)
stoichiometry N [1]: 2 and 4

B2: Cdc11-capped septin hetero-octamers containing Cdc10-GFP as the sole source of Cdc10 (complex, S. cerevisiae)
chain 1: MSGIIDASSALRKRKHLKRGITFTVMIVGQSGSGRSTFINTLCGQQVVDTSTTILLPTDTSTEIDLQLREETVELEDDEGVKIQLNIIDTPGFGDSLDNSPSFEIISDYIRHQYDEILLEESRVRRNPRFKDGRVHCCLYLINPTGHGLKEIDVEFIRQLGSLVNIIPVISKSDSLTRDELKLNKKLIMEDIDRWNLPIYNFPFDEDEISDEDYETNMYLRTLLPFAIIGSNEVYEMGGDVGTIRGRKYPWGILDVEDSSISDFVILRNALLISHLHDLKNYTHEILYERYRTEALSGESVAAESIRPNLTKLNGSSSSSTTTRRNTNPFKQSNNINNDVLNPASDMHGQSTGENNETYMTREEQIRLEEERLKAFEERVQQELLLKRQELLQREKELREIEARLEKEAKIKQEE
chain 2: MSAATATAAPVPPPVGISNLPNQRYKIVNEEGGTFTVMLCGESGLGKTTFINTLFQTVLKRADGQQHRQEPIRKTVEIDITRALLEEKHFELRVNVIDTPGFGDNVNNNKAWQPLVDFIDDQHDSYMRQEQQPYRTKKFDLRVHAVLYFIRPTGHGLKPIDIETMKRLSTRANLIPVIAKADTLTAQELQQFKSRIRQVIEAQEIRIFTPPLDADSKEDAKSGSNPDSAAVEHARQLIEAMPFAIVGSEKKFDNGQGTQVVARKYPWGLVEIENDSHCDFRKLRALLLRTYLLDLISTTQEMHYETYRRLRLEGHENTGEGNEDFTLPAIAPARKLSHNPRYKEEENALKKYFTDQVKAEEQRFRQWEQNIVNERIRLNGDLEEIQGKVKKLEEQVKSLQVKKSHLK
chain 3: MSLKEEQVSIKQDPEQEERQHDQFNDVQIKQESQDHDGVDSQYTNGTQNDDSERFEAAESDVKVEPGLGMGITSSQSEKGQVLPDQPEIKFIRRQINGYVGFANLPKQWHRRSIKNGFSFNLLCVGPDGIGKTTLMKTLFNNDDIEANLVKDYEEELANDQEEEEGQGEGHENQSQEQRHKVKIKSYESVIEENGVKLNLNVIDTEGFGDFLNNDQKSWDPIIKEIDSRFDQYLDAENKINRHSINDKRIHACLYFIEPTGHYLKPLDLKFMQSVYEKCNLIPVIAKSDILTDEEILSFKKTIMNQLIQSNIELFKPPIYSNDDAENSHLSERLFSSLPYAVIGSNDIVENYSGNQVRGRSYPWGVIEVDNDNHSDFNLLKNLLIKQFMEELKERTSKILYENYRSSKLAKLGIKQDNSVFKEFDPISKQQEEKTLHEAKLAKLEIEMKTVFQQKVSEKEKKLQKSETELFARHKEMKEKLTKQLKALEDKKKQLELSINSASPNVNHSPVPTKKKGFLR
chain 4: MDPLSSVQPASYVGFDTITNQIEHRLLKKGFQFNIMVVGQSGLGKSTLINTLFASHLIDSATGDDISALPVTKTTEMKISTHTLVEDRVRLNINVIDTPGFGDFIDNSKAWEPIVKYIKEQHSQYLRKELTAQRERFITDTRVHAILYFLQPNGKELSRLDVEALKRLTEIANVIPVIGKSDTLTLDERTEFRELIQNEFEKYNFKIYPYDSEELTDEELELNRSVRSIIPFAVVGSENEIEINGETFRGRKTRWSAINVEDINQCDFVYLREFLIRTHLQDLIETTSYIHYEGFRARQLIALKENANSRSSAHMSSNAIQR
binding result [3]: binds

B3: Wild-type Cdc11-capped septin hetero-octamers (Cdc11-Cdc12-Cdc3-Cdc10-Cdc10-Cdc3-Cdc12-Cdc11) used for EM (complex, S. cerevisiae)
chain 1: MSGIIDASSALRKRKHLKRGITFTVMIVGQSGSGRSTFINTLCGQQVVDTSTTILLPTDTSTEIDLQLREETVELEDDEGVKIQLNIIDTPGFGDSLDNSPSFEIISDYIRHQYDEILLEESRVRRNPRFKDGRVHCCLYLINPTGHGLKEIDVEFIRQLGSLVNIIPVISKSDSLTRDELKLNKKLIMEDIDRWNLPIYNFPFDEDEISDEDYETNMYLRTLLPFAIIGSNEVYEMGGDVGTIRGRKYPWGILDVEDSSISDFVILRNALLISHLHDLKNYTHEILYERYRTEALSGESVAAESIRPNLTKLNGSSSSSTTTRRNTNPFKQSNNINNDVLNPASDMHGQSTGENNETYMTREEQIRLEEERLKAFEERVQQELLLKRQELLQREKELREIEARLEKEAKIKQEE
chain 2: MSAATATAAPVPPPVGISNLPNQRYKIVNEEGGTFTVMLCGESGLGKTTFINTLFQTVLKRADGQQHRQEPIRKTVEIDITRALLEEKHFELRVNVIDTPGFGDNVNNNKAWQPLVDFIDDQHDSYMRQEQQPYRTKKFDLRVHAVLYFIRPTGHGLKPIDIETMKRLSTRANLIPVIAKADTLTAQELQQFKSRIRQVIEAQEIRIFTPPLDADSKEDAKSGSNPDSAAVEHARQLIEAMPFAIVGSEKKFDNGQGTQVVARKYPWGLVEIENDSHCDFRKLRALLLRTYLLDLISTTQEMHYETYRRLRLEGHENTGEGNEDFTLPAIAPARKLSHNPRYKEEENALKKYFTDQVKAEEQRFRQWEQNIVNERIRLNGDLEEIQGKVKKLEEQVKSLQVKKSHLK
chain 3: MSLKEEQVSIKQDPEQEERQHDQFNDVQIKQESQDHDGVDSQYTNGTQNDDSERFEAAESDVKVEPGLGMGITSSQSEKGQVLPDQPEIKFIRRQINGYVGFANLPKQWHRRSIKNGFSFNLLCVGPDGIGKTTLMKTLFNNDDIEANLVKDYEEELANDQEEEEGQGEGHENQSQEQRHKVKIKSYESVIEENGVKLNLNVIDTEGFGDFLNNDQKSWDPIIKEIDSRFDQYLDAENKINRHSINDKRIHACLYFIEPTGHYLKPLDLKFMQSVYEKCNLIPVIAKSDILTDEEILSFKKTIMNQLIQSNIELFKPPIYSNDDAENSHLSERLFSSLPYAVIGSNDIVENYSGNQVRGRSYPWGVIEVDNDNHSDFNLLKNLLIKQFMEELKERTSKILYENYRSSKLAKLGIKQDNSVFKEFDPISKQQEEKTLHEAKLAKLEIEMKTVFQQKVSEKEKKLQKSETELFARHKEMKEKLTKQLKALEDKKKQLELSINSASPNVNHSPVPTKKKGFLR
chain 4: MDPLSSVQPASYVGFDTITNQIEHRLLKKGFQFNIMVVGQSGLGKSTLINTLFASHLIDSATGDDISALPVTKTTEMKISTHTLVEDRVRLNINVIDTPGFGDFIDNSKAWEPIVKYIKEQHSQYLRKELTAQRERFITDTRVHAILYFLQPNGKELSRLDVEALKRLTEIANVIPVIGKSDTLTLDERTEFRELIQNEFEKYNFKIYPYDSEELTDEELELNRSVRSIIPFAVVGSENEIEINGETFRGRKTRWSAINVEDINQCDFVYLREFLIRTHLQDLIETTSYIHYEGFRARQLIALKENANSRSSAHMSSNAIQR
binding result [3]: binds

B6: (His)8-3C protease cleavage site-Bni5 fusion (wild-type Bni5), P53890 1-448 (natural protein)
chain: MGLDQDKIKKRLSQIEIDINQMNQMIDENLQLVEPAEDEAVEDNVKDTGVVDAVKVAETALFSGNDGADSNPGDSAQVEEHKTAQVHIPTENEANKSTDDPSQLSVTQPFIAKEQITHTAIAIGDSYNSFVANSAGNEKAKDSCTENKEDGTVNIDQNRGEADVEIIENNDDEWEDEKSDVEEGRVDKGTEENSEIESFKSPMPQNNTLGGENKLDAELVLDKFSSANKDLDIQPQTIVVGGDNEYNHESSRLADQTPHDDNSENCPNRSGGSTPLDSQTKIFIPKKNSKEDGTNINHFNSDGDGQKKMANFETRRPTNPFRVISVSSNSNSRNGSRKSSLNKYDSPVSSPITSASELGSIAKLEKRHDYLSMKCIKLQKEIDYLNKMNAQGSLSMEDGKRLHRAVVKLQEYLDKKTKEKYEVGVLLSRHLRKQIDRGENGQFWIGTK
stoichiometry N [5]: 2 | stoichiometry N [6]: 2 and 4

Further lines, results first:

binding result [2]: binds
B1: Cdc11 (wild type), terminal subunit of the septin hetero-octamer (natural protein, S. cerevisiae, UniProt P32458 1-415, looked up)
chain: MSGIIDASSALRKRKHLKRGITFTVMIVGQSGSGRSTFINTLCGQQVVDTSTTILLPTDTSTEIDLQLREETVELEDDEGVKIQLNIIDTPGFGDSLDNSPSFEIISDYIRHQYDEILLEESRVRRNPRFKDGRVHCCLYLINPTGHGLKEIDVEFIRQLGSLVNIIPVISKSDSLTRDELKLNKKLIMEDIDRWNLPIYNFPFDEDEISDEDYETNMYLRTLLPFAIIGSNEVYEMGGDVGTIRGRKYPWGILDVEDSSISDFVILRNALLISHLHDLKNYTHEILYERYRTEALSGESVAAESIRPNLTKLNGSSSSSTTTRRNTNPFKQSNNINNDVLNPASDMHGQSTGENNETYMTREEQIRLEEERLKAFEERVQQELLLKRQELLQREKELREIEARLEKEAKIKQEE

EC50 [4]: 614 nM
B4: Bni5(314–448) C375 labeled with AF647 (domain or fragment)
chain: TRRPTNPFRVISVSSNSNSRNGSRKSSLNKYDSPVSSPITSASELGSIAKLEKRHDYLSMKCIKLQKEIDYLNKMNAQGSLSMEDGKRLHRAVVKLQEYLDKKTKEKYEVGVLLSRHLRKQIDRGENGQFWIGTK
modifications: AF647 (Alexa Fluor 647 maleimide) on C375

Kd [4]: 154 nM
B5: Bni5(C144R C266F) labeled with AF647 at C375 (natural protein)
chain: MGLDQDKIKKRLSQIEIDINQMNQMIDENLQLVEPAEDEAVEDNVKDTGVVDAVKVAETALFSGNDGADSNPGDSAQVEEHKTAQVHIPTENEANKSTDDPSQLSVTQPFIAKEQITHTAIAIGDSYNSFVANSAGNEKAKDSRTENKEDGTVNIDQNRGEADVEIIENNDDEWEDEKSDVEEGRVDKGTEENSEIESFKSPMPQNNTLGGENKLDAELVLDKFSSANKDLDIQPQTIVVGGDNEYNHESSRLADQTPHDDNSENFPNRSGGSTPLDSQTKIFIPKKNSKEDGTNINHFNSDGDGQKKMANFETRRPTNPFRVISVSSNSNSRNGSRKSSLNKYDSPVSSPITSASELGSIAKLEKRHDYLSMKCIKLQKEIDYLNKMNAQGSLSMEDGKRLHRAVVKLQEYLDKKTKEKYEVGVLLSRHLRKQIDRGENGQFWIGTK
modifications: AF647 (Alexa Fluor 647 maleimide) on C375
